Here are results for three molecules from patent publication US20150232560A1 (Hoffmann-La Roche, published 2015).

The target of assay [1] is T1, IGF-1R(1340-1366)[1346-pTyr]amid (phosphotyrosine at 1346; C-terminal amide).
T1 construct: Used as the analyte free in solution; also called pIGF-1R peptide (free in solution); phosphorylated IGF-1R peptide
T1 peptide: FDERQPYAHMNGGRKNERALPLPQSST
Put plainly: SPR (BIAcore 3000, SA sensor, 25 C): ss-FABs hybridized on the surface-captured biotinylated T40-Bi ss-DNA linker; peptide as analyte in solution. The source says: (§1) FIG. 17 Schematic drawing of the BIAcore assay, presenting the complex s on the sensor surface. On Flow Cell 1 (=FC1) (not shown) amino-PEO-biotin was captured. On FC2, FC3 and FC4 bivalent binding agents with increasing linker length were immobilized. Analyte 1: IGF-1R-peptide containing the M-1.4.168 ss-FAB epitope (thin line)-the M-8.1.2 ss-FAB phospho-epitope is not present, because this peptide is not phosphorylated; analyte 2: pIGF-1R peptide containing the M-8.1.2 ss-FAB phospho-epitope (P) and the M-1.4.168 ss-FAB epitope (thin line). Analyte 3: pINR peptide, containing the cross reacting M-8.1.2 ss-FAB phospho-epitope, but not the epitope for M-1.4.168.
(§2) The dissociation was monitored at 50 μl/min for 5.3 min. The system was regenerated after each concentration step with a 12 sec pulse of 250 mM NaOH and was reloaded with ss-FAB ligand.
On the technique in general: Surface plasmon resonance follows binding to a sensor surface in real time, without labels.

For assay [2], the target named is T2, IGF-1R(1340-1366)amid (C-terminal amide).
T2 construct: Used as the analyte free in solution; also called IGF-1R peptide (free in solution); non-phosphorylated IGF-1R peptide
T2 peptide: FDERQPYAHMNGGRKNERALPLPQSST
The assay is described as above.
Source text: as §1, §2

For assay [3], the target named is T1, IGF-1R(1340-1366)[1346-pTyr]amid. The experiment in a line: SPR (BIAcore 3000), ss-FABs hybridized on biotinylated T40-Bi linker on SA chip, peptide in solution; T40-Bi linker (linker 10).
In assay [4] the target is T3, INR(1355-1382)[1361-pTyr]amid (human, phosphotyrosine at 1361; C-terminal amide).
T3 construct: Used as the analyte free in solution; also called pINR peptide; phosphorylated insulin receptor peptide (free in solution)
T3 peptide: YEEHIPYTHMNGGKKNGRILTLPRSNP
Put plainly: SPR (BIAcore 3000, SA sensor, 25 C): single ss-FAB hybridized on the surface-captured biotinylated T40-Bi ss-DNA linker; peptide as analyte in solution.

The target in assay [5] is T1, IGF-1R(1340-1366)[1346-pTyr]amid. Put plainly: SPR (BIAcore 3000), ss-FABs hybridized on biotinylated T0 linker on SA chip, peptide in solution; T0 linker (no spacer; linker 16 as printed).
The target is the same in assay [6]. The experiment in a line: SPR (BIAcore 3000, SA sensor, 25 C): ss-FABs hybridized on the surface-captured biotinylated T0-Bi ss-DNA linker; peptide as analyte in solution.
The target in assay [7] is T2, IGF-1R(1340-1366)amid. Described as above.

Values joined by “and” are separate entries in the source; they are usually repeats but may differ in a detail not shown here. Equal entries are not always repeated.

B1: T40 dual binding agent: ss-FAB 8.1.2 and ss-FAB 1.4.168 on the biotinylated T40-Bi 77-mer ss-DNA-Linker (linker 10) (bispecific antibody, V domains shown)
VH 1: QCDVKLVESGGGLVKPGGSLKLSCAASGFTFSDYPMSWVRQTPEKRLEWVATITTGGTYTYYPDSIKGRFTISRDNAKNTLYLQMGSLQSEDAAMYYCTRVKTDLWWGLAYWGQGTLVTVSA
VL 1: QLVLTQSSSASFSLGASAKLTCTLSSQHSTYTIEWYQQQPLKPPKYVMELKKDGSHTTGDGIPDRFSGSSSGADRYLSISNIQPEDESIYICGVGDTIKEQFVYVFGGGTKVTVLG
VH 2: EVQLQQSGPALVKPGASVKMSCKASGFTFTSYVIHWVKQKPGQGLEWIGYLNPYNDNTKYNEKFKGKATLTSDRSSSTVYMEFSSLTSEDSAVYFCARRGIYAYDHYFDYWGQGTSLTVSS
VL 2: QIVLTQSPAIMSASPGEKVTLTCSASSSVNYMYWYQQKPGSSPRLLIYDTSNLASGVPVRFSGSGSVTSYSLTISRMEAEDAATYYCQQWSTYPLTFGAGTKLELK
modifications: ss-DNA on a hinge cysteine
notes: Assembled on the SA chip on the biotinylated linker T20-(Biotin-dT)-T20; also called T40-bi complex
Turning to B1, the Kd in assay [1] is 0.0125 nM; in the assay with IGF-1R(1340-1366)amid [2], 0.973 nM and 1 nM; in assay [3], 0.01 nM. For the same molecule, the t1/2 diss with IGF-1R(1340-1366)amid [2] came to 4.3 min.

B2: ss-FAB' 1.4.168 (Fab, V domains shown)
VH: DVKLVESGGGLVKPGGSLKLSCAASGFTFSDYPMSWVRQTPEKRLEWVATITTGGTYTYYPDSIKGRFTISRDNAKNTLYLQMGSLQSEDAAMYYCTRVKTDLWWGLAYWGQGTLVTVSA
VL: B1 VL 1
modifications: 17mer ss-DNA comprising SEQ ID NO: 05 with fluorescein, coupled via maleimide to a cysteine of the FAB' hinge region
notes: FAB' made from the murine monoclonal antibody M-1.4.168 by pepsin cleavage and cysteamine reduction; the constant parts are not; also called ss-FAB 1.004.168; fluorescein-ss-FAB' 1.4.168
Turning to B2, in assay [4], the binding result is “no binding”.

B3: T0 dual binding agent: ss-FAB 8.1.2 and ss-FAB 1.4.168 on the biotinylated T0-Bi 37-mer ss-DNA-Linker (linker 17) (bispecific antibody, V domains shown)
VH 1: B1 VH 1
VL 1: B1 VL 1
VH 2: B1 VH 2
VL 2: B1 VL 2
modifications: ss-DNA on a hinge cysteine
notes: The protein parts are the same in both cases
Regarding B3, the Kd in assay [5] was 0.03 nM; in assay [6], 0.0344 nM; with IGF-1R(1340-1366)amid [7] it was 1.2 nM and 1 nM. This molecule also returned a t1/2 diss with IGF-1R(1340-1366)amid [7] of 5 min.

In general, Kd refers to a measure of binding affinity in units of concentration. High values mean lower affinity, low ones higher affinity.
